Assay results from publication doi:10.1101/2022.02.01.475276.

What was measured:
Test in all cases: EMSA
[1] = target: HIF2a;ARNT (HIFa partner) (human;human, UniProt Q99814;P27540 1-353;1-503, |)
[2] = target: HIF1a;ARNT (HIFa partner) (human?;human, UniProt Q16665;P27540 1-375;1-503, |)
[3] = target: NPAS4;ARNT2 (NPAS4 partner) (mouse;mouse, UniProt Q8BGD7;Q61324 1-329;1-481, |)
[4] = target: SIM1;ARNT2 (SIM1 partner) (;, UniProt P81133;Q9HBZ2 1-348;1-455, |)
SIM1;ARNT2 (SIM1 partner), sequence (P81133 1-348, chain 1 of 2): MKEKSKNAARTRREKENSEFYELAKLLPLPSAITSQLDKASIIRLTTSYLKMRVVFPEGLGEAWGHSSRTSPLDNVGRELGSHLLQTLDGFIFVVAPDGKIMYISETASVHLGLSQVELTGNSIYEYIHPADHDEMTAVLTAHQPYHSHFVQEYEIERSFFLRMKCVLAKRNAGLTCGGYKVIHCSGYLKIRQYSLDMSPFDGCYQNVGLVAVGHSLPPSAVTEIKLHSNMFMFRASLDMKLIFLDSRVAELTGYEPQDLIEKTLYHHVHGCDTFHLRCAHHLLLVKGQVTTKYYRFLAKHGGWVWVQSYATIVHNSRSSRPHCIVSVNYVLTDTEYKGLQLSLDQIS
SIM1;ARNT2 (SIM1 partner), sequence (Q9HBZ2 1-455, chain 2 of 2): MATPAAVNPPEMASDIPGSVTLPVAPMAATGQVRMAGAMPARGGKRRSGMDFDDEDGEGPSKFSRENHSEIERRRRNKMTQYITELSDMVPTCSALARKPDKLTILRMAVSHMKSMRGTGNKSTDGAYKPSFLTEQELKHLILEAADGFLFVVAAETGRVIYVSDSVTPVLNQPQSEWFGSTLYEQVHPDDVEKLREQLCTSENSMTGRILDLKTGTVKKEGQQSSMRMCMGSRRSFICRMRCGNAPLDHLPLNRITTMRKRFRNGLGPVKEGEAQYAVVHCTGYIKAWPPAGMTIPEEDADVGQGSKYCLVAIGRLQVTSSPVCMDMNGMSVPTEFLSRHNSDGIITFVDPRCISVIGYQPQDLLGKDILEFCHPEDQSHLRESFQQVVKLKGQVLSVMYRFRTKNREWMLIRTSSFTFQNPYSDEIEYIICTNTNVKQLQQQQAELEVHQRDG

HIF1a;ARNT (HIFa partner), sequence (P27540 1-503, chain 2 of 2, other chains not shown): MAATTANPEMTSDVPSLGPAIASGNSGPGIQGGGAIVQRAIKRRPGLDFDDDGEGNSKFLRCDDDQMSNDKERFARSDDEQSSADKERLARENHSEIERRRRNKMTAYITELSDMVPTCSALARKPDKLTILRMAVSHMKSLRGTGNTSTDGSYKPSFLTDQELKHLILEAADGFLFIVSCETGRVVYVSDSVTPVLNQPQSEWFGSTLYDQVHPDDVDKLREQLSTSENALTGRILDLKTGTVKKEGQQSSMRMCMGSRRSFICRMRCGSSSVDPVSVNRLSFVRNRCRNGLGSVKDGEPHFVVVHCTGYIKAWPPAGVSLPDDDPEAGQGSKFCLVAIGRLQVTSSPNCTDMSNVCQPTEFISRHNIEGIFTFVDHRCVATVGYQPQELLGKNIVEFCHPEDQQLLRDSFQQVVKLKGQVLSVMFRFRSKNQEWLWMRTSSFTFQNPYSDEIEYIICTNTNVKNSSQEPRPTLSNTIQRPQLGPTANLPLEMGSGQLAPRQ
HIF2a;ARNT (HIFa partner), sequence (Q99814 1-353, chain 1 of 2): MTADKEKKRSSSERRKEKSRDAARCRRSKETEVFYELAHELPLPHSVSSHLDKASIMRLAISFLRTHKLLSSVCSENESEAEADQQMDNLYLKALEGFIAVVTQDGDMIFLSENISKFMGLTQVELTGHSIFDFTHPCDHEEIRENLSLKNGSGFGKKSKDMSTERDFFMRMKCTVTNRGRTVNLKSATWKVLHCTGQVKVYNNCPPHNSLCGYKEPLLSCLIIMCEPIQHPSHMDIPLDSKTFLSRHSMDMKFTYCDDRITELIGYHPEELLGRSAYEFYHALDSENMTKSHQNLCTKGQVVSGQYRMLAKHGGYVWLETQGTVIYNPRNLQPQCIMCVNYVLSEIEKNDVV
HIF2a;ARNT (HIFa partner), sequence (P27540 1-503, chain 2 of 2): as the sequence (P27540 1-503, chain 2 of 2, other chains not shown) above
NPAS4;ARNT2 (NPAS4 partner), sequence (Q8BGD7 1-329, chain 1 of 2): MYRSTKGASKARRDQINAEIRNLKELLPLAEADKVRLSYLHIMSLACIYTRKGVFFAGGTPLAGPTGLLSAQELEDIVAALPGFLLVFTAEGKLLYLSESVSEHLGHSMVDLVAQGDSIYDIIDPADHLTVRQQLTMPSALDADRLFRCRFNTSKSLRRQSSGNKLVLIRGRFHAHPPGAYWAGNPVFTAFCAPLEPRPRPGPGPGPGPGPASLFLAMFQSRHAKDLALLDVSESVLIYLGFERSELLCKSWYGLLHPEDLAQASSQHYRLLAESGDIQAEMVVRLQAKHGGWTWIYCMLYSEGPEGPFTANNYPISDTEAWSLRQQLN
NPAS4;ARNT2 (NPAS4 partner), sequence (Q61324 1-481, chain 2 of 2): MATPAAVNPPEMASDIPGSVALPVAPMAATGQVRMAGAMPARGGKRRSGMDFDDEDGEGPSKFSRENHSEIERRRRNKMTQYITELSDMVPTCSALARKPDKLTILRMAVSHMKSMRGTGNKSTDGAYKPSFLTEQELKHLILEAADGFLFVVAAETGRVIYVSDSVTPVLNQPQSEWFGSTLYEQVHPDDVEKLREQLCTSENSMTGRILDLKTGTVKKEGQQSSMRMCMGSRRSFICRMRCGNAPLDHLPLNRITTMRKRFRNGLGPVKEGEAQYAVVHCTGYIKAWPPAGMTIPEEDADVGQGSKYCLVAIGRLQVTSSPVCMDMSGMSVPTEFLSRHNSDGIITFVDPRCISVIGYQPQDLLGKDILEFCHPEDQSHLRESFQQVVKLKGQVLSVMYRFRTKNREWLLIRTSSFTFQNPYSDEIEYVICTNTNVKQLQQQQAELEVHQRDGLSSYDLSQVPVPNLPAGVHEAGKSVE

B1: HRE (C/C) (dsDNA)
DNA 1: AGGCTGCGTACGTGCGGGTCGT
DNA 2: ACGACCCGCACGTACGCAGCCT
binding signal [1]: ~1 reference (HIF1a/ARNT about 2-fold higher) | binding signal [2]: ~2 fold higher affinity than HIF2a/ARNT

B2: NRE (dsDNA)
DNA 1: AAATGAGTCGTGACCAAAAATT
DNA 2: AATTTTTGGTCACGACTCATTT
binding result [3]: binds

B3: SRE (dsDNA)
DNA 1: AAAAGGTACGTGACCAAAAAGA
DNA 2: TCTTTTTGGTCACGTACCTTTT
binding result [4]: binds
